Stoichiometry N data for two substances are collected here from PMC6854500.

Experiment [1] deals with PEDV CV777 S soluble ectodomain (residues 1 to 1319) with C-terminal T4 fibritin trimerization motif (porcine epidemic diarrhea virus, strain CV777 | bacteriophage T4) (UniProt Q91AV1). As to the kind of experiment: SEC; Superose6 10/300 column, 2 mM Tris (pH 8.0), 200 mM NaCl, 0.02% NaN3; single symmetrical peak. A general note: In gel filtration, larger molecules generally elute earlier.

Experiment [2] has the same target. As to the kind of experiment: cryo-EM structure; PEDV S CV777 at 0.4 mg/ml in 2 mM Tris (pH 8.0), 200 mM NaCl, 0.02% NaN3, 0.01% Amphipol A8-35; Titan Krios 300 kV; 3.3 Å without symmetry, 3.1 Å with C3; a 10-Å reconstruction with 2 mM 3'-sialyllactose was indistinguishable.
Experiment [3] deals with dissociated PEDV CV777 S1 subunit (S1 ring) (porcine epidemic diarrhea virus, strain CV777) (UniProt Q91AV1). The experiment in a line: cryo-EM structure; roughly 10% of the particles of the PEDV CV777 S data set, 2D classes and a 9.4-Å reconstruction without imposed symmetry (C1).

Turning to “PEDV CV777 S soluble ectodomain (residues 1 to 1319) with C-terminal T4 fibritin trimerization motif (from UniProt Q91AV1 26-1319) (domain or fragment)”, the stoichiometry N in experiment [1] and in experiment [2] was 3 in each case.

“dissociated PEDV CV777 S1 subunit (S1 ring) (from UniProt Q91AV1 26-1383) (domain or fragment)”: the stoichiometry N (in general, a count of units in the complex or per binding partner) in experiment [3] stood at 3.
